Laboratory results taken from US20240199745A1, “ANTI-EGFR ANTIBODY DRUG CONJUGATES” (priority 2016, published 2024).

Key:
[1] = target: human EGFR (huEGFR) over-expressed on mcl-1-/- mouse embryonic fibroblasts (human, UniProt P00533 25-1210); test: cell-based or functional assay
[2] = target: EGFR on EGFR positive non-small cell lung cancer cells NCI-H1650 (UniProt P00533 25-1210); test: cell-based or functional assay

| Binder | huEGFR+ mcl-1-/- MEF EC50 [1] [nM] | H1650 CTG-3D EC50 [2] [µg/mL] | H1650 GFP Flourescence EC50 [2] [µg/mL] |
| --- | --- | --- | --- |
| AbG-CZ (antibody, human IgG1, kappa, V domains shown, synthon CZ on reduced interchain cysteines; average DAR 3.4 per ADC) VH: EVQLQESGPGLVKPSQTLSLTCTVSGYSISNDFAWNWIRQLPGKGLEWMGYISYKGNTRYQPSLKSRITISRDTSKNQFFLKLNSVTAADTATYYCVTASRGLPYWGQGTLVTVSS VL: DIQMTQSPSSMSVSVGDRVTITCHSSQDITYNIGWLQQKPGKSFKGLIYHGANLDDGVPSRFSGSGSGTDYTLTISSLQPEDFATYYCVQYDEFPWTFGGGTKLEIKR | 3.4 | 0.07 | 0.25 |
| AbG-AAD (antibody, human IgG1, kappa, V domains shown, synthon AAD on reduced interchain cysteines; average DAR 3.4 per ADC) VH: EVQLQESGPGLVKPSQTLSLTCTVSGYSISNDFAWNWIRQLPGKGLEWMGYISYKGNTRYQPSLKSRITISRDTSKNQFFLKLNSVTAADTATYYCVTASRGLPYWGQGTLVTVSS VL: DIQMTQSPSSMSVSVGDRVTITCHSSQDITYNIGWLQQKPGKSFKGLIYHGANLDDGVPSRFSGSGSGTDYTLTISSLQPEDFATYYCVQYDEFPWTFGGGTKLEIKR | 108 | 0.02 | 0.03 |
| AbA-TV (antibody, human IgG1, kappa, V domains shown, synthon TV on reduced interchain cysteines; average DAR 3.7 per ADC) VH: EVQLQESGPGLVKPSQTLSLTCTVSGYSISRDFAWNWIRQPPGKGLEWMGYISYNGNTRYQPSLKSRITISRDTSKNQFFLKLNSVTAADTATYYCVTASRGFPYWGQGTLVTVSS VL: DIQMTQSPSSMSVSVGDRVTITCHSSQDINSNIGWLQQKPGKSFKGLIYHGTNLDDGVPSRFSGSGSGTDYTLTISSLQPEDFATYYCVQYAQFPWTFGGGTKLEIKR | 3 | 0.34 | 0.69 |
| AbK-AAA (antibody, human IgG1, kappa, V domains shown, synthon AAA on reduced interchain cysteines; average DAR 1.6 per ADC) VH: EVQLQESGPGLVKPSQTLSLTCTVSGYSISRDFAWNWIRQPPGKGLEWMGYISYNGNTRYQPSLKSRITISRDTSKNQFFLKLNSVTAADTATYYCVTASRGFPWWGQGTLVTVSS VL: DIQMTQSPSSMSVSVGDRVTITCHSSQDITYNVGWLQQKPGKSFKGLIYHGSNLDHGVPSRFSGSGSGTDYTLTISSLQPEDFATYYCVQYDDFPWTFGGGTKLEIKR | 3.4 | 0.11 | 0.16 |
| AbA-WD (antibody, human IgG1, kappa, V domains shown, synthon WD on reduced interchain cysteines; average DAR 1.8 per ADC) VH: EVQLQESGPGLVKPSQTLSLTCTVSGYSISRDFAWNWIRQPPGKGLEWMGYISYNGNTRYQPSLKSRITISRDTSKNQFFLKLNSVTAADTATYYCVTASRGFPYWGQGTLVTVSS VL: DIQMTQSPSSMSVSVGDRVTITCHSSQDINSNIGWLQQKPGKSFKGLIYHGTNLDDGVPSRFSGSGSGTDYTLTISSLQPEDFATYYCVQYAQFPWTFGGGTKLEIKR | 304 | 23.6 | 7.62 |
| AbA-TX (antibody, human IgG1, kappa, V domains shown, synthon TX on reduced interchain cysteines; average DAR 2.8 per ADC) VH: EVQLQESGPGLVKPSQTLSLTCTVSGYSISRDFAWNWIRQPPGKGLEWMGYISYNGNTRYQPSLKSRITISRDTSKNQFFLKLNSVTAADTATYYCVTASRGFPYWGQGTLVTVSS VL: DIQMTQSPSSMSVSVGDRVTITCHSSQDINSNIGWLQQKPGKSFKGLIYHGTNLDDGVPSRFSGSGSGTDYTLTISSLQPEDFATYYCVQYAQFPWTFGGGTKLEIKR | 16 | > 40 | 13.9 |
| AbK-CZ (antibody, human IgG1, kappa, V domains shown, synthon CZ on reduced interchain cysteines; average DAR 3.4 per ADC) VH: EVQLQESGPGLVKPSQTLSLTCTVSGYSISRDFAWNWIRQPPGKGLEWMGYISYNGNTRYQPSLKSRITISRDTSKNQFFLKLNSVTAADTATYYCVTASRGFPWWGQGTLVTVSS VL: DIQMTQSPSSMSVSVGDRVTITCHSSQDITYNVGWLQQKPGKSFKGLIYHGSNLDHGVPSRFSGSGSGTDYTLTISSLQPEDFATYYCVQYDDFPWTFGGGTKLEIKR | 0.1 | 0.08 | 0.21 |
| AbG-AAA (antibody, human IgG1, kappa, V domains shown, synthon AAA on reduced interchain cysteines; average DAR 1.9 per ADC) VH: EVQLQESGPGLVKPSQTLSLTCTVSGYSISNDFAWNWIRQLPGKGLEWMGYISYKGNTRYQPSLKSRITISRDTSKNQFFLKLNSVTAADTATYYCVTASRGLPYWGQGTLVTVSS VL: DIQMTQSPSSMSVSVGDRVTITCHSSQDITYNIGWLQQKPGKSFKGLIYHGANLDDGVPSRFSGSGSGTDYTLTISSLQPEDFATYYCVQYDEFPWTFGGGTKLEIKR | 220 | 0.12 | 0.17 |
| AbK-YY (antibody, human IgG1, kappa, V domains shown, synthon YY on reduced interchain cysteines; average DAR 1.7 per ADC) VH: EVQLQESGPGLVKPSQTLSLTCTVSGYSISRDFAWNWIRQPPGKGLEWMGYISYNGNTRYQPSLKSRITISRDTSKNQFFLKLNSVTAADTATYYCVTASRGFPWWGQGTLVTVSS VL: DIQMTQSPSSMSVSVGDRVTITCHSSQDITYNVGWLQQKPGKSFKGLIYHGSNLDHGVPSRFSGSGSGTDYTLTISSLQPEDFATYYCVQYDDFPWTFGGGTKLEIKR | 47 | 0.49 | 1.09 |
